Measured values: article PMC2837404, “The Human Polyoma JC Virus Agnoprotein Acts as a Viroporin” (PLoS Pathogens, 2010)
Where “and” joins values, the source holds several entries; their conditions need not be identical. Equal entries are not always repeated.

Molecular target: the molecule itself
Test: cross-linking; SVG-A cells infected with JCV for 1 week, reacted as whole cells with 0.5, 1, 2 or 5 mM DSS (or DMSO) for 2 h at 4°C in DPBS (+), quenched with 50 mM Tris pH 7.5, lysed in 1% Triton X-100; SDS-PAGE and immunoblot with anti-agnoprotein antibody

B1: JCV agnoprotein expressed in JCV-infected SVG-A cells (natural protein)
chain: MVLRQLSRKASVKVSKTWSGTKKRAQRILIFLLEFLLDFCTGEDSVDGKKRQRHSGLTEQTYSALPEPKAT
notes: JC virus (JCV) agnoprotein made from the viral genome in infected cells; monomer about 8 kDa; The virus was prepared from JCI cells or JC virus-infected SVG-A cells; source: SVG-A cells infected with JCV for 1 week
stoichiometry N: 2 and 3 and 4 and 5
